Data: patent publication US20250019463A1 (UCB, published 2025)

T1: human transglutaminase type 2 (TG2) (human, UniProt P21980 2-687)
T1 sequence: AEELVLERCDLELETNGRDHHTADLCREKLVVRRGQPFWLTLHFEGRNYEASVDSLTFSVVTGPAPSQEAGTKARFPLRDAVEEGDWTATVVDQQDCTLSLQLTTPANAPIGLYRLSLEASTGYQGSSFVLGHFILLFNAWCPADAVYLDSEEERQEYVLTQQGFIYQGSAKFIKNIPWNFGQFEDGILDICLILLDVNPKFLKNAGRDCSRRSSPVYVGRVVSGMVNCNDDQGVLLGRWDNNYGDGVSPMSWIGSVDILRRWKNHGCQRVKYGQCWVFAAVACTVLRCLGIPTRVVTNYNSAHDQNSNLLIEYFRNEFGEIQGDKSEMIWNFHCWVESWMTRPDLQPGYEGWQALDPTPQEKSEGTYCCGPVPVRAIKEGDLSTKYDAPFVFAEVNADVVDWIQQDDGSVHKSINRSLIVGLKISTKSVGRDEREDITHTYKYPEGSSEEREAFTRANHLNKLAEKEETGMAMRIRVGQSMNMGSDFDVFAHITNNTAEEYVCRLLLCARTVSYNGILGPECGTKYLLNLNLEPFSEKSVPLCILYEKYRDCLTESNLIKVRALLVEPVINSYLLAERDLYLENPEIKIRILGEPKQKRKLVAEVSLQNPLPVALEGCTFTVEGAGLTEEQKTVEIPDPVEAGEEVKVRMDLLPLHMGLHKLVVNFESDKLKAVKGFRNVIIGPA

B1: Zampilimab (antibody, V domains shown)
VH: EVQLLESGGGLVQPGGSLRLSCAASGFTLSTHAMSWVRQAPGKGLEWVATISSGGRSTYYPDSVKGRFTISRDNSKNTLYLQMNSLRAEDTAVYFCARLISTYWGQGTLVTVSS
VL: DITMTQSPSSLSASVGDRVTITCKASQDINSYLTWFQQKPGKAPKILIYLVNRLVDGVPSRFSGSGSGQDYALTISSLQPEDFATYYCLQYDDFPYTFGQGTKVEIK
B2: rbBB7 (antibody, V domains shown)
VH: EVQLLESGGRLVTPGGSLTLTCAASGIIFSSSAMSWVRQAPGKGLEWVATISSGGRSTYYPDSVKGRFTVSRDSSKNTLYLQMNSLRAEDTAVYYCAKLISPYWGQGTLVTVSS
VL: AIKMTQTPSSVSAAVGGTVTISCKASQDINSYLTWFQQKPGQPPKTLIYLTNRLMDGVPSRFSGSGSGQEFLLTISGLECDDAATYYCLQYVDFPYTFGGGTKVVVK

Legend:
[1] = target: T1, human transglutaminase type 2 (TG2); assay: cell-based or functional assay
[2] = target: rabbit TG2 (rabbit); assay: cell-based or functional assay

Binder | IC50 against human TG2 (assay not given) [1] [nM] | IC50 against rabbit TG2 (assay not given) [2] [nM]
B1 | 0.25 | 103
B2 | 0.3 | 8
